{"source": "patent US20120308580A1", "about": "(NATIONAL UNIVERSITY OF SINGAPORE, published 2012)", "key": {"[1]": {"target": "T1, HBV env183-191 peptide / HLA-A201 complex on cells (human; Hepatitis B virus)"}, "[2]": {"target": "T2, HBV pol, 455-463 peptide / HLA-A201 complex on T2 cells (human; Hepatitis B virus)", "T2 construct": "whole, on cells", "assay": "flow cytometry, peptide pulsed T2 cells (FIG. 8A, peptides of Table 4)"}, "[3]": {"target": "T3, FEC11 (EBV) peptide / HLA-A201 complex on T2 cells (human; EBV)", "assay": "flow cytometry, peptide pulsed T2 cells (FIG. 8A, peptides of Table 4)"}, "[4]": {"target": "T4, HBc19-27I peptide / HLA-A201 complex on T2 cells (human; Hepatitis B virus)", "T4 construct": "whole, on cells", "assay": "flow cytometry, peptide pulsed T2 cells (FIG. 8A, peptides of Table 4)"}, "[5]": {"target": "T2, HBV pol, 455-463 peptide / HLA-A201 …", "assay": "flow cytometry, peptide pulsed T2 cells"}, "[6]": {"target": "T5, Mage3, 271-279 peptide / HLA-A201 complex on T2 cells (human)", "T5 construct": "whole, on cells; also called Mage3-271-79", "assay": "flow cytometry, peptide pulsed T2 cells"}, "[7]": {"target": "T6, HBV env, 348-357 peptide / HLA-A201 complex on T2 cells (human; Hepatitis B virus)", "T6 construct": "whole, on cells", "assay": "flow cytometry, peptide pulsed T2 cells"}, "[8]": {"target": "T3, FEC11 (EBV) peptide / HLA-A201 complex …", "assay": "flow cytometry, peptide pulsed T2 cells"}, "[9]": {"target": "c18-27 peptide alone (free, not on HLA-A2) (Hepatitis B virus)", "assay": "pre-incubation with free peptide, then flow cytometry on the specific target"}, "[10]": {"target": "T1, HBV env183-191 peptide / HLA-A201 …", "remark": "listed apart in the source"}}, "data": [{"binder": "E183/A2 mAb (antibody, V domains shown, also called HBe183-191 antibody; antibody against HBe183-191) VH: QVQLQQPGAEFVKPGASVRLSCKASGYTFSSYWMHWVKQRPGQGLEWIGEIDPSDSYTNYNQKFKGKATLTVDKSSSTAYMQFSSLTSEDSAVYYCATSGYDVGVDYWGQGTTLTVSS VL: DIQMTQSPASLSASVGETVTITCRASENIYSYLAWYHQKQGKSPQLLVYIAKTLAEGVPSRFSGSGSGTQFSLKIDSLQPEDVGSYYCQHHYGTPYTFGGGTKLEIK", "values": [{"measurement": "EC50 (read off the curve)", "setting": "[1]", "result": "~0.01", "unit": "µg"}, {"measurement": "binding result", "setting": "[2]", "result": "no binding (tested: 1 µM peptide; 0.5 µg mAb)"}, {"measurement": "binding result", "setting": "[3]", "result": "no binding (tested: 1 µM peptide; 0.5 µg mAb)"}, {"measurement": "binding result", "setting": "[4]", "result": "no binding (tested: 1 µM peptide; 0.5 µg mAb)"}]}, {"binder": "c18/A2 mAb (antibody, V domains shown, also called HBc18-27 antibody) VH: QVQLQQSGPELVKPGASVKISCKASGHTFTSYDINWVKQRPGQGLEWIGWIYPGDGSTKYNEKFKGKATLTADKSSSTAYMQLSSLTSENSAVYFCARRDYGYSYAMDYWGQGTSVTVSS VL: DIQMTQSPASLSTSVGETVTITCRASGNIHNYLAWYQQKQGKSPQLLVYNAKTLADGVPSRFSGSGSGTQFSLKINSLQPEDFGSYYCQHFWSTPFTFGSGTKLEIK", "values": [{"measurement": "binding result", "setting": "[5]", "result": "no binding (tested: 1 µM peptide; 0.5 µg mAb)"}, {"measurement": "binding result", "setting": "[6]", "result": "no binding (tested: 1 µM peptide; 0.5 µg mAb)"}, {"measurement": "binding result", "setting": "[7]", "result": "no binding (tested: 1 µM peptide; 0.5 µg mAb)"}, {"measurement": "binding result", "setting": "[8]", "result": "no binding (tested: 1 µM peptide; 0.5 µg mAb)"}, {"measurement": "binding result", "setting": "[4]", "result": "no binding (tested: 1 µM peptide; 0.5 µg mAb)"}, {"measurement": "binding result", "setting": "[9]", "result": "no binding (tested: 1 uM)"}, {"measurement": "binding result", "setting": "[10]", "result": "no binding (tested: 0.5 ug mAb in 50 ul)"}]}]}
